Source: PMC3864932, “Identification of Crucial Amino Acids in Mouse Aldehyde Oxidase 3 That Determine Substrate Specificity” (PLoS ONE, 2013)
Residue numbers refer to the chain shown, from its start. Numbers in names are those of the source. Read-outs that look alike come from different tables or passages of the source. Blank lines part the entries; values can stand above or below the molecule they belong to.

Assays:
mAOX3-FeSII-FeSI-mAOX1 [1] = tested on: T1, mAOX3-FeSII-FeSI-mAOX1; assay: steady-state kinetics, DCPIP reduction at […] nm; format: biochemical, Mus musculus; conditions: 100 µM DCPIP as electron acceptor, 50 mM Tris-HCl pH 8.0, 1 mM EDTA, 37 °C; kcat corrected for Mo content
T1 construct: gene Aox3; mAOX3 with M1-Q214 replaced by M1-Q213 of mAOX1 (both FeS domains); N-terminal His6-tag; E. coli; dimer

mAOX3-FeSII-mAOX1 [2] = tested on: T2, mAOX3-FeSII-mAOX1; assay: steady-state kinetics, DCPIP reduction at […] nm; format: biochemical, Mus musculus; conditions: 100 µM DCPIP as electron acceptor, 50 mM Tris-HCl pH 8.0, 1 mM EDTA, 37 °C, kcat corrected for Mo content
T2 construct: gene Aox3; mAOX3 with M1-P80 replaced by M1-P76 of mAOX1 (FeSII domain); N-terminal His6-tag; E. coli; dimer

mAOX3-FeSI-mAOX1 [3] = tested on: T3, mAOX3-FeSI-mAOX1; assay: steady-state kinetics, DCPIP reduction at […] nm; format: biochemical, Mus musculus; conditions: 100 µM DCPIP as electron acceptor, 50 mM Tris-HCl pH 8.0, 1 mM EDTA, 37 °C; kcat corrected for Mo content
T3 construct: gene Aox3; mAOX3 with A87-Q214 replaced by T83-Q213 of mAOX1 (FeSI domain); N-terminal His6-tag; E. coli; dimer

mAOX3-FeSII-FeSI-mAOX1 [4] = tested on: T4, mAOX3-FeSII-FeSI-mAOX1; conditions: read-out: mAOX3-FeSII-FeSI-mAOX1; O2 (air-saturated buffer) as electron acceptor, 50 mM Tris-HCl pH 8.0, 1 mM EDTA, 37 °C; kcat corrected for Mo content
T4 construct: gene Aox3

mAOX3-FeSI-mAOX1 [5] = tested on: T5, mAOX3-FeSI-mAOX1; conditions: read-out: mAOX3-FeSI-mAOX1; O2 (air-saturated buffer) as electron acceptor, 50 mM Tris-HCl pH 8.0, 1 mM EDTA, 37 °C; kcat corrected for Mo content
T5 construct: gene Aox3

mAOX3-FeSII-mAOX1 [6] = tested on: T6, mAOX3-FeSII-mAOX1; conditions: read-out: mAOX3-FeSII-mAOX1; O2 (air-saturated buffer) as electron acceptor, 50 mM Tris-HCl pH 8.0, 1 mM EDTA, 37 °C; kcat corrected for Mo content
T6 construct: gene Aox3

purified protein [7] = substrate: O=c1[nH]cnc2nc[nH]c12; assay: purified protein; format: biochemical, Mus musculus; conditions: 100 µM DCPIP as electron acceptor, 50 mM Tris-HCl pH 8.0, 1 mM EDTA, 37 °C, kcat corrected for Mo content
purified protein [8] = substrate: Oc1ncnc2[nH]ncc12; assay: purified protein; format: biochemical, Mus musculus; conditions: 100 µM DCPIP as electron acceptor, 50 mM Tris-HCl pH 8.0, 1 mM EDTA, 37 °C, kcat corrected for Mo content
purified protein [9] = substrate: c1ccc2c(c1)cnc1ccccc12; assay: purified protein; conditions: O2 (air-saturated buffer) as electron acceptor, 50 mM Tris-HCl pH 8.0, 1 mM EDTA, 37 °C, kcat corrected for Mo content
purified protein [10] = substrate: C[n+]1cccc(C(N)=O)c1; assay: purified protein; format: biochemical, Mus musculus; conditions: 100 µM DCPIP as electron acceptor, 50 mM Tris-HCl pH 8.0, 1 mM EDTA, 37 °C, kcat corrected for Mo content
purified protein [11] = substrate: O=Cc1ccccc1; assay: purified protein; format: biochemical, Mus musculus; conditions: 100 µM DCPIP as electron acceptor, 50 mM Tris-HCl pH 8.0, 1 mM EDTA, 37 °C, kcat corrected for Mo content
purified protein [12] = substrate: c1ccc2cnncc2c1; assay: purified protein; format: biochemical, Mus musculus; conditions: 100 µM DCPIP as electron acceptor, 50 mM Tris-HCl pH 8.0, 1 mM EDTA, 37 °C, kcat corrected for Mo content

Molecule: O=Cc1ccccc1 [benzaldehyde]
Km (mAOX3-FeSII-FeSI-mAOX1 [1]): 2.2 ± 0.1 µM | Km (mAOX3-FeSII-mAOX1 [2]; read-out: mAOX3-FeSII-mAOX1): 1.6 ± 0.1 µM | Km (mAOX3-FeSI-mAOX1 [3]): 3.6 ± 0.3 µM

Km (mAOX3-FeSII-FeSI-mAOX1 [4]): 28 ± 2 µM | Km (mAOX3-FeSI-mAOX1 [5]): 35 ± 2 µM | Km (mAOX3-FeSII-mAOX1 [6]): 30 ± 5 µM
Molecule: c1ccc2c(c1)cnc1ccccc12 [phenanthridine]

Molecule: O=c1[nH]cnc2[nH]ncc12 [allopurinol]
Km (mAOX3-FeSI-mAOX1 [3]): 1340 ± 43 µM

Km (mAOX3-FeSII-FeSI-mAOX1 [1]): 1 ± 0.1 µM | Km (mAOX3-FeSII-mAOX1 [2]; read-out: mAOX3-WT ^4): 1.4 ± 0.2 µM | Km (mAOX3-FeSI-mAOX1 [3]): 1.2 ± 0.1 µM
Molecule: c1ccc2cnncc2c1 [phthalazine]

B1: mAOX3 (mouse aldehyde oxidase 3) (Mus musculus; A807E/D878L/F776K/G1013S/K1016V/K889H/L881S/P1015T/S1011G/V1012I/Y1019L/Y1020N/Y885R) (protein)
chain: MSPSKESDELIFFVNGKKVTERNADPEVNLLFYLRKVIRLTGTKYGCGGGDCGACTVMISRYDPISKRISHFSATACLVPICSLHGAAVTTVEGIGSTKTRIHPVQERIAKGHGTQCGFCTPGMVMSIYTLLRNHPEPSTEQIMETLGGNLCRCTGYRPIVESAKSFCPSSTCCQMNGEGKCCLDEEKNEPERKNSVCTKLYEKKEFQPLDPTQELIFPPELMRMAEESQNTVLTFRGERTTWIAPGTLNDLLELKMKHPSAPLVIGNTYLGLHMKFTDVSYPIIISPARILELFVVTNTKQGLTLGAGLSLTQVKNVLSDVVSRLPKEKTQIYCALLKQLKTLAGQQIRNVASLGGHIISRLPTSDLNPILGIGNCILNVASTEGIQQIPLNDHFLAGVPDAILKPEQVLISVFVPRSSKWEFVSAFRQAPRQQNAFATVNAGMKVVFKEDTNTITDLGILYGGIGATVISADKSCRQLIGRCWDEEMLDDAGKMICEEVSLLMAAPGGMEEYRKTLAISFLFMFYLDVLKQLKTRDPHKYPDISQKLLHILEDFPLTMPYGMQSFQDVDFQQPLQDPIGRPIMHQSGIKHATGEAVFCDDMSVLPGELFLAVVTSSKSHAKIISLDASEALASLGVVDVVTARDVPGDNGREEESLYAQDEVICVGQIVCAVAADSYAHAQQAAKKVKIVYQDIEPMIVTVQDALQYESFIGPERKLEQGNVEEAFQCADQILEGEVHLGGQEHFYMETQSVRVVPKGEDKEMDIYVSSQDAAKTQEMVARTLGIPKNRINCHVKRVGGAFGGKESKPGLLASVAAVAAQKTGRPIRFILERRDDMLITGGRHPLLGKYKIGFMNNGKIKAADIQLYINGGCTPDLSESVIERALLHLENAYKIPNLRVRGRVCKTNLPSNTAFRGFGFPQGAFVTETCMSAVAAKCRLPPEKVRELNMYRTIDRTIHNQEFDPTNLLQCWEACVENSSYYNRKKAVDEFNQQRFWKKRGIAIIPMKFGISFTVTFLNQAAALVQIYTDGSVLVAHGGVELGQGINTKMIQVASRELKIPMSYIHLDEMSTVTVPNTVTTGASTGADVNGRAVQNACQILMKRLEPIIKQNPSGTWEEWVKEAFVQSISLSATGYFRGYQADMDWEKGEGDIFPYFVFGAACSEVEIDCLTGAHKNIRTDIVMDGSFSINPAVDIGQIEGAFVQGLGLYTLEELKYSPEGVLYTRGPHQYKIASVTDIPEEFHVSLLTPTPNPKAIYSSKGLGEAGTFLGCSVFFAIAAAVAAAREERGLSPIWAINSPATAEVIRMACEDQFTNLVPQTDSKCCKPWSIPVA
notes: N-terminal His6-tag, full length, plasmid pMMA1, expressed in E. coli; homodimer with Moco, two [2Fe-2S], FAD
Km (purified protein [7]): 1736 ± 155 µM | kcat (purified protein [7]): 0.0833 s⁻¹ | kcat/Km (purified protein [7]): 47.8 ± 5.83 M⁻¹ s⁻¹ | Km (purified protein [8]): 620 ± 16 µM | kcat (purified protein [8]): 0.65 ± 0.05 s⁻¹ | kcat/Km (purified protein [8]): 1050 ± 83.3 M⁻¹ s⁻¹

B2: mAOX3 (mouse aldehyde oxidase 3) (Mus musculus; P1015G) (protein)
chain: MSPSKESDELIFFVNGKKVTERNADPEVNLLFYLRKVIRLTGTKYGCGGGDCGACTVMISRYDPISKRISHFSATACLVPICSLHGAAVTTVEGIGSTKTRIHPVQERIAKGHGTQCGFCTPGMVMSIYTLLRNHPEPSTEQIMETLGGNLCRCTGYRPIVESAKSFCPSSTCCQMNGEGKCCLDEEKNEPERKNSVCTKLYEKKEFQPLDPTQELIFPPELMRMAEESQNTVLTFRGERTTWIAPGTLNDLLELKMKHPSAPLVIGNTYLGLHMKFTDVSYPIIISPARILELFVVTNTKQGLTLGAGLSLTQVKNVLSDVVSRLPKEKTQIYCALLKQLKTLAGQQIRNVASLGGHIISRLPTSDLNPILGIGNCILNVASTEGIQQIPLNDHFLAGVPDAILKPEQVLISVFVPRSSKWEFVSAFRQAPRQQNAFATVNAGMKVVFKEDTNTITDLGILYGGIGATVISADKSCRQLIGRCWDEEMLDDAGKMICEEVSLLMAAPGGMEEYRKTLAISFLFMFYLDVLKQLKTRDPHKYPDISQKLLHILEDFPLTMPYGMQSFQDVDFQQPLQDPIGRPIMHQSGIKHATGEAVFCDDMSVLPGELFLAVVTSSKSHAKIISLDASEALASLGVVDVVTARDVPGDNGREEESLYAQDEVICVGQIVCAVAADSYAHAQQAAKKVKIVYQDIEPMIVTVQDALQYESFIGPERKLEQGNVEEAFQCADQILEGEVHLGGQEHFYMETQSVRVVPKGEDKEMDIYVSSQDAAFTQEMVARTLGIPKNRINCHVKRVGGAFGGKASKPGLLASVAAVAAQKTGRPIRFILERRDDMLITGGRHPLLGKYKIGFMNNGKIKAADIQLYINGGCTPDDSELVIEYALLKLENAYKIPNLRVRGRVCKTNLPSNTAFRGFGFPQGAFVTETCMSAVAAKCRLPPEKVRELNMYRTIDRTIHNQEFDPTNLLQCWEACVENSSYYNRKKAVDEFNQQRFWKKRGIAIIPMKFSVGFGKTFYYQAAALVQIYTDGSVLVAHGGVELGQGINTKMIQVASRELKIPMSYIHLDEMSTVTVPNTVTTGASTGADVNGRAVQNACQILMKRLEPIIKQNPSGTWEEWVKEAFVQSISLSATGYFRGYQADMDWEKGEGDIFPYFVFGAACSEVEIDCLTGAHKNIRTDIVMDGSFSINPAVDIGQIEGAFVQGLGLYTLEELKYSPEGVLYTRGPHQYKIASVTDIPEEFHVSLLTPTPNPKAIYSSKGLGEAGTFLGCSVFFAIAAAVAAAREERGLSPIWAINSPATAEVIRMACEDQFTNLVPQTDSKCCKPWSIPVA
Km (purified protein [9]): 47 ± 2 µM | kcat (purified protein [9]): 8.83 s⁻¹ | kcat/Km (purified protein [9]): 189000 M⁻¹ s⁻¹

B3: mAOX3 (mouse aldehyde oxidase 3) (Mus musculus; P1015A) (protein)
chain: B2 chain with G1015A
notes: as for B1
Km (purified protein [10]): 87 ± 3.4 µM | kcat (purified protein [10]): 1.08 ± 0.183 s⁻¹ | kcat/Km (purified protein [10]): 12400 ± 2200 M⁻¹ s⁻¹

B4: mAOX3 (mouse aldehyde oxidase 3) (Mus musculus; F1014I) (protein)
chain: B2 chain with F1014I, G1015P
notes: as for B1
Km (purified protein [11]): 22.7 ± 2.7 µM | kcat (purified protein [11]): 0.317 ± 0.05 s⁻¹ | kcat/Km (purified protein [11]): 13300 ± 3330 M⁻¹ s⁻¹

B5: mAOX3 (mouse aldehyde oxidase 3) (Mus musculus; F1014V) (protein)
chain: B2 chain with F1014V, G1015P
notes: as for B1
Km (purified protein [12]): 12.5 ± 0.6 µM | kcat (purified protein [12]): 4.63 ± 0.233 s⁻¹ | kcat/Km (purified protein [12]): 372000 ± 25000 M⁻¹ s⁻¹

B6: mAOX3 (mouse aldehyde oxidase 3) (Mus musculus; A807E/D878L/F776K/L881S/P1015T/Y1019L/Y885R) (protein)
chain: B1 chain with H889K, G1011S, I1012V, S1013G, V1016K, N1020Y
notes: as for B1
Km (purified protein [8]): 2933 ± 380 µM | kcat (purified protein [8]): 0.233 ± 0.0167 s⁻¹ | kcat/Km (purified protein [8]): 83.3 ± 16.7 M⁻¹ s⁻¹

B7: mAOX3 (mouse aldehyde oxidase 3) (Mus musculus; A807E/D878L/F776K/K889H/L881S/P1015T/Y1019L/Y885R) (protein)
chain: B1 chain with G1011S, I1012V, S1013G, V1016K, N1020Y
notes: as for B1
Km (purified protein [11]): 2122 ± 88 µM | kcat (purified protein [11]): 3.9 ± 0.25 s⁻¹ | kcat/Km (purified protein [11]): 1830 ± 133 M⁻¹ s⁻¹ | Km (purified protein [7]): 4085 ± 227 µM | kcat (purified protein [7]): 0.417 ± 0.0167 s⁻¹ | kcat/Km (purified protein [7]): 104 ± 8 M⁻¹ s⁻¹ | Km (purified protein [8]): 133 ± 10 µM | kcat (purified protein [8]): 1.58 ± 0.1 s⁻¹ | kcat/Km (purified protein [8]): 12000 ± 1120 M⁻¹ s⁻¹
